Here are results for 2 substances from patent US20180237756.

The target of data set [1] is T1, TgoT DNA polymerase (V93Q D141A E143A A485L) (Thermococcus gorgonarius) (UniProt P56689).
T1 sequence: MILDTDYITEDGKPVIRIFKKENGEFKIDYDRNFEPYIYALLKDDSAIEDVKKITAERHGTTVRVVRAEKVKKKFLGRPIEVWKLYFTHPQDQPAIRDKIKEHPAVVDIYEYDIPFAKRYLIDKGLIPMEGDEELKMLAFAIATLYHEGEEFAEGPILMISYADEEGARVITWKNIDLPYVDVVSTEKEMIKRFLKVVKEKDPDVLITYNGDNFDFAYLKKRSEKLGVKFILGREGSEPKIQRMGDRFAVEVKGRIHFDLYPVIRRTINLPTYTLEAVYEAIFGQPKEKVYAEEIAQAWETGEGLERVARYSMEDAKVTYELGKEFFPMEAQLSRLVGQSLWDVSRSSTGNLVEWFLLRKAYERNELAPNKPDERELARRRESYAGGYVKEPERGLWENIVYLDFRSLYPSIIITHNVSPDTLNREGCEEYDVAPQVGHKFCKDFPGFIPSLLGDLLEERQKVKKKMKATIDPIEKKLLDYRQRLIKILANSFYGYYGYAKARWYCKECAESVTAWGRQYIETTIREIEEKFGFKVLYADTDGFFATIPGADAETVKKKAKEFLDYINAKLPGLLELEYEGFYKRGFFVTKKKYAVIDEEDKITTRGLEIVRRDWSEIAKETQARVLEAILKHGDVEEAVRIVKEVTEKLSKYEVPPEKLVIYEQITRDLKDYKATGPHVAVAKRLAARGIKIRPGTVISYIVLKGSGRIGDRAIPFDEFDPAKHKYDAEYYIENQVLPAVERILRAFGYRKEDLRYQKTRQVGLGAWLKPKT
The conditions noted are these: does not synthesise HNA much beyond six incorporations.

The test system of data set [2] is TAT (trans-activator of transcription) (HIV). Description: competition.

E. coli tRNA supE gene primer-template came in with an activity (hNTP incorporations) in data set [1] of 6. As a reminder, the IC50 is the concentration at which inhibition is half-maximal. Low readings indicate greater potency in that assay, high ones weaker potency in that assay. As to miniTAR RNA, the IC50 in data set [2] (IC50 of HNA anti-TAR aptamer T5S8-7 (binds TAR RNA) displacing TAT from immobilized miniTAR, CI95 1.3-2.8 nM) worked out at 1.9 nM; in data set [2] (IC50 of RNA anti-TAR aptamer R06 (binds TAR RNA) displacing TAT from immobilized miniTAR, CI95 166-675 nM), 313 nM.
